Source: PMC6152936 (Cell reports, 2018)

Target: the molecule itself
Test: SAXS

B1: TFG N terminus (amino acids 1-138), wild type (domain or fragment, human, UniProt Q92734 1-138, looked up)
chain: MNGQLDLSGKLIIKAQLGEDIRRIPIHNEDITYDELVLMMQRVFRGKLLSNDEVTIKYKDEDGDLITIFDSSDLSFAIQCSRILKLTLFVNGQPRPLESSQVKYLRRELIELRNKVNRLLDSLEPPGEPGPSTNIPEN
- stoichiometry N: 8
